Changes are numbered by the printed parent chain.
B1: VRDN-02501 (antibody, V domains shown)
VH: EVQLVQSGGGLVKPGGSLRLSCAASHFTFSSFAMHWVRQAPGKGLEWISVIDTRGATYYADSVKGRFTISRDNAKNSLYLQMNSLRAEDTAVYYCARLGNFYYGMDVWGQGTTVTVSS
VL: EIVLTQSPGTLSVSPGERATLSCRASQSIGSSLHWYQQKPGQAPRLLIKYASQSLSGIPDRFSGSGSGTDFTLTISRLEPEDFAVYYCHQSSRLPHTFGQGTKVEIK
B2: VRDN-02516 (antibody, V domains shown)
VH: B1 VH with H26G, A96H
VL: B1 VL
B3: VRDN-02531 (antibody, V domains shown)
VH: B1 VH with H26G
VL: B1 VL with Q27H
B4: VRDN-02562 (antibody, V domains shown)
VH: B1 VH with H26G, D52H, A96H
VL: B1 VL
B5: VRDN-02564 (antibody, V domains shown)
VH: B1 VH with H26G, D52H, M105H
VL: B1 VL
B6: VRDN-02520 (antibody, V domains shown)
VH: B1 VH with H26G, N100H
VL: B1 VL
B7: VRDN-02525 (antibody, V domains shown)
VH: B1 VH with H26G, M105H
VL: B1 VL
B8: VRDN-02528 (antibody, V domains shown)
VH: B1 VH with H26G
VL: B1 VL with R24H
B9: VRDN-02533 (antibody, V domains shown)
VH: B1 VH with H26G
VL: B1 VL with I29H
B10: VRDN-02522 (antibody, V domains shown)
VH: B1 VH with H26G, Y102H
VL: B1 VL
B11: VRDN-02538 (antibody, V domains shown)
VH: B1 VH with H26G
VL: B1 VL with K49H
B12: VRDN-02571 (antibody, V domains shown)
VH: B1 VH with H26G, D52H, M105H
VL: B1 VL with Y50H
B13: VRDN-02558 (antibody, V domains shown)
VH: B1 VH with H26G, A33H, D52H
VL: B1 VL
B14: VRDN-02524 (antibody, V domains shown)
VH: B1 VH with H26G, G104H
VL: B1 VL
B15: VRDN-02568 (antibody, V domains shown)
VH: B1 VH with H26G, A33H, D52H, M105H
VL: B1 VL
B16: VRDN-02529 (antibody, V domains shown)
VH: B1 VH with H26G
VL: B1 VL with A25H
B17: VRDN-02518 (antibody, V domains shown)
VH: B1 VH with H26G, L98H
VL: B1 VL
B18: VRDN-02517 (antibody, V domains shown)
VH: B1 VH with H26G, R97H
VL: B1 VL
B19: VRDN-02530 (antibody, V domains shown)
VH: B1 VH with H26G
VL: B1 VL with S26H
B20: VRDN-02519 (antibody, V domains shown)
VH: B1 VH with H26G, G99H
VL: B1 VL
B21: VRDN-02527 (antibody, V domains shown)
VH: B1 VH with H26G, V107H
VL: B1 VL
B22: VRDN-02502 (antibody, V domains shown)
VH: B1 VH with H26G, F27H
VL: B1 VL
B23: VRDN-02553 (antibody, V domains shown)
VH: B1 VH with H26G, A33H
VL: B1 VL with Y50H
B24: VRDN-02555 (antibody, V domains shown)
VH: B1 VH with H26G, A96H
VL: B1 VL with Y50H
B25: VRDN-02561 (antibody, V domains shown)
VH: B1 VH with H26G, A33H, M105H
VL: B1 VL
B26: VRDN-02521 (antibody, V domains shown)
VH: B1 VH with H26G, F101H
VL: B1 VL
B27: VRDN-02554 (antibody, V domains shown)
VH: B1 VH with H26G, D52H
VL: B1 VL with Y50H
B28: VRDN-02532 (antibody, V domains shown)
VH: B1 VH with H26G
VL: B1 VL with S28H
B29: VRDN-02563 (antibody, V domains shown)
VH: B1 VH with H26G, D52H, G104H
VL: B1 VL
B30: VRDN-02569 (antibody, V domains shown)
VH: B1 VH with H26G, A33H, D52H
VL: B1 VL with Y50H
B31: VRDN-02523 (antibody, V domains shown)
VH: B1 VH with H26G, Y103H
VL: B1 VL
B32: VRDN-02503 (antibody, V domains shown)
VH: B1 VH with H26G, T28H
VL: B1 VL
B33: VRDN-02570 (antibody, V domains shown)
VH: B1 VH with H26G, A33H, M105H
VL: B1 VL with Y50H

molecular target: Recombinant human his-tagged IGF 1R extracellular domain protein (human) (UniProt P08069); test: SPR, captured IgG, IGF-1R ECD-his analyte, dissociation pH 6

Row | Kd [nM] | koff [s⁻¹] | kon [M⁻¹ s⁻¹] | Binder
1 | 0.0259 | 1e-06 | 38600 | B1
2 | 16.8 | 0.00196 | 117000 | B2
3 | 0.0319 | 1e-06 | 31300 | B3
4 | 1.34 | 0.00018 | 135000 | B4
5 | 1.48 | 0.000507 | 344000 | B5
6 | 0.0242 | 1e-06 | 41400 | B6
7 | 4.58 | 0.000147 | 32100 | B7
8 | 0.0246 | 1e-06 | 40600 | B8
9 | 0.0493 | 1e-06 | 20300 | B9
10 | 0.0376 | 1e-06 | 26600 | B10
11 | 0.0463 | 1e-06 | 21600 | B11
12 | 2.15 | 0.000344 | 160000 | B12
13 | 3.15 | 0.00017 | 53900 | B13
14 | 1.22 | 4.66e-05 | 38300 | B14
15 | 29.9 | 0.000129 | 4320 | B15
16 | 0.0541 | 1e-06 | 18500 | B16
17 | 0.0385 | 1e-06 | 26000 | B17

Row | Kd [nM] | koff [s⁻¹] | kon [M⁻¹ s⁻¹] | Binder
18 | 5.07 | 0.000265 | 52300 | B18
19 | 0.029 | 1e-06 | 34500 | B19
20 | 16.9 | 0.000627 | 37100 | B20
21 | 0.0258 | 1e-06 | 38800 | B21
22 | 0.0375 | 1e-06 | 26700 | B22
23 | 1.56 | 0.000534 | 341000 | B23
24 | 0.851 | 0.000418 | 491000 | B24
25 | 1.64 | 0.000539 | 329000 | B25
26 | 0.05 | 1e-06 | 20000 | B26
27 | 1.53 | 0.000152 | 99500 | B27
28 | 0.0292 | 1e-06 | 34300 | B28
29 | 3.46 | 0.000353 | 102000 | B29
30 | 1.51 | 0.000516 | 342000 | B30
31 | 0.036 | 1e-06 | 27800 | B31
32 | 0.0262 | 1e-06 | 38100 | B32
33 | 1.76 | 0.000376 | 214000 | B33

molecular target: Recombinant human his-tagged IGF 1R extracellular domain protein (human) (UniProt P08069); test: SPR, captured IgG, IGF-1R ECD-his analyte, dissociation pH 7.4

Row | Kd [nM] | koff [s⁻¹] | kon [M⁻¹ s⁻¹] | Binder
34 | 0.911 | 0.00015 | 165000 | B1
35 | 2.35 | 0.000418 | 178000 | B2
36 | 0.85 | 2.1e-05 | 24700 | B3
37 | 0.0069 | 1e-06 | 145000 | B6
38 | 0.00758 | 1e-06 | 132000 | B7
39 | 0.252 | 3.55e-05 | 141000 | B8
40 | 0.519 | 4.45e-05 | 85700 | B9
41 | 0.37 | 1.73e-05 | 46700 | B10
42 | 0.00752 | 1e-06 | 133000 | B14
43 | 3.8 | 0.000103 | 27100 | B16
44 | 0.549 | 6.31e-05 | 115000 | B17
45 | 10.7 | 0.00264 | 247000 | B18
46 | 0.102 | 1.53e-05 | 150000 | B19
47 | 10.5 | 0.00366 | 348000 | B20
48 | 0.225 | 2.16e-05 | 95900 | B21
49 | 0.0244 | 4.1e-06 | 168000 | B22
50 | 1.48 | 7.2e-05 | 48500 | B26
51 | 0.316 | 4.08e-05 | 129000 | B28
52 | 0.717 | 2.74e-05 | 38200 | B31
53 | 1.53 | 0.000161 | 105000 | B32

From patent US20240343814A1
